Experimental data published in paper doi:10.1101/2024.07.12.603347.

Tests used:
[1] = molecular target: Cytochrome P450 RufO (Streptomyces atratus); assay: UV-visible absorbance titration
[2] = molecular target: Biarylitide crosslinking cytochrome P450Blt; assay: UV-visible absorbance titration

**Q.** How did the Kd [1] turn out when “Nle-RYLH (Nle-1), BytA pentapeptide MRYLH with norleucine in place of Met” was run?
**A.** The Kd was 840 nM.

**Q.** And the Kd [2]?
**A.** The Kd was 2100 nM.
